Here are results for 1 protein from publication PMC9693643, “Aminoquinolones and Their Benzoquinone Dimer Hybrids as Modulators of Prion Protein Conversion” (Molecules, 2022).

The data set deals with the molecule itself. Nature of the data set: RT-QuIC (seeded fibril conversion, thioflavin T fluorescence).

B1: murine recombinant full-length prion protein (PrP23-231) (natural protein)
chain: not shown
notes: also called recombinant PrP; PrP23-231 fibril seed
B1: the binding result is “binds”.
